In PMC10686989, “Distinct activation mechanisms of β-arrestin-1 revealed by ^19F NMR spectroscopy” (Nature Communications, 2023) one finds Kd data, which are given here for one substance.

pKd: −log10 of the molar value.

Broadly, the pKd is the Kd on a negative log10 scale, so that one unit is a factor of ten.

The test addresses cysteine-less β-arrestin-1 D390C, 19F-labelled with wPSP-6F (human) (UniProt P49407). Put plainly: NMR titration; 19F NMR of wPSP-6F-labelled βarr1 (D390C site) titrated with phosphopeptide; 298 K, 20 mM Tris-HCl, 150 mM NaCl, pH 8.0; Kd estimated.

Sequence of cysteine-less β-arrestin-1 D390C, 19F-labelled with wPSP-6F (human) (P49407 whole entry C59V/C125S/C140L/C150V/C242V/C251V/C269S/D390C): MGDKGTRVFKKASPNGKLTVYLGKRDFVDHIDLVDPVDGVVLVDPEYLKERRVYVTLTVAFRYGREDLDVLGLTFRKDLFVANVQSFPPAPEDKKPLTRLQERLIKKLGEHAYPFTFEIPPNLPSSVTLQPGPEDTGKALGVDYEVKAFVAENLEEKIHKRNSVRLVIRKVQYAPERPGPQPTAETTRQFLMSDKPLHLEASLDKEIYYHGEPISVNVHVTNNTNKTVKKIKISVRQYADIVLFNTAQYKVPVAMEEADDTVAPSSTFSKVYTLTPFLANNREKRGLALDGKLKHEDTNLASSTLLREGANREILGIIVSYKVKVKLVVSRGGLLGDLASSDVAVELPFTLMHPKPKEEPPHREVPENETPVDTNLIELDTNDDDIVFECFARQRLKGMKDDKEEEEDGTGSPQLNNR

Consider “V2Rpp, phosphopeptide derived from the vasopressin V2 receptor (V2R)”, for which the pKd is 5.89.
